Measured values from patent US20250340660A1 (published 2025).
Substitutions are numbered along the chain they refer to.

B1: anti-CD30L antibody Clone 2 (parental) (antibody, V domains shown)
VH: EVQLVESGGGLVQPGRSLRLSCAASGFNFDDYAMHWVRQAPGKGLEWVSGISWRSGNIGYAGSVKGRFTISRDNAKNSLYLQMNSLRPEDSALYYCAKDKGIGFNWNYEGFDYWGQGTLVTVSS
VL: DIQMTQSPSSLSASVGDRVTITCRASQGISNHLAWFQQKPGKAPKSLIYAASSLQSGVPSKFSGSGSGTDFTLTISSLQPEDFATYYCQQYVTYPLTFGGGTKVEIK
B2: Clone 2, fluorescently labeled (format not stated in Table 7) (antibody, V domains shown)
VH: B1 VH
VL: B1 VL
modifications: fluorescent label (site not stated)
notes: The variable domains are those of parental clone 2
B3: Fab of anti-CD30L clone 2 germlined (Fab, V domains shown)
VH: B1 VH with G62D, P88A, S91T
VL: B1 VL with K61R
notes: Fab; also called germlined-clone-2 Fab; germlined-clone-2-Fab
B4: anti-CD30L antibody clone 2 germlined (antibody, V domains shown)
VH: B1 VH with G62D, P88A, S91T
VL: B1 VL with K61R
notes: also called germlined clone 2
B5: Clone 1, fluorescently labeled (format not stated in Table 7) (antibody, V domains shown)
VH: QVQLQESGPGLVKPSETLSLTCTVSGGSISGYYWSWIRQPPVKGLEWIGYIFYSGYTKYNPSLKSRVTISVDTSKNQFSLKLSSVTAADTAVYYCARDRWDFDYWGQGALVTVSS
VL: AIQMTQSPSYLSASVGDRVTIACRASQGIRNNLGWYQQKPGKAPKLLIYAESSLQSGVPSRFSGSGSGTDFTLTISSLQPEDFATYYCLQDFNYPYTFGQGTKLEIK
modifications: fluorescent label (site not stated)
notes: The variable domains are those of parental clone 1
B6: clone 111, function blocking rat anti-mouse CD30L antibody (antibody, mouse IgG2a, V domains shown)
VH: EVKLQQSGDELVRPGASVKMSCKASGYTFTDYAMHWVKQSPGQGLEWIGSIIPLIDTTSYNQKFKGKATLTADKSSNTAYMELSRLTSEDSAVYYCARLGSRYLEGFDYWGQGVMVTVSS
VL: DIQMTQSPSSMSASLGDTVTINCLASQDIGNYLSWYQQKPGKSPKLMIYGATNLEDGVPSRFSGSGSGSDYSLTINSLGYDDEGIYHCHQYYEYPLTFGSGTKLEIK
notes: Rat antibody as found in the screen

How the values were obtained:
[1] = target: T1, cynomolgus CD30L expressed on HEK293 cells (cynomolgus, UniProt A0A7N9CVX7 1-234); assay: cell-based or functional assay
T1 sequence: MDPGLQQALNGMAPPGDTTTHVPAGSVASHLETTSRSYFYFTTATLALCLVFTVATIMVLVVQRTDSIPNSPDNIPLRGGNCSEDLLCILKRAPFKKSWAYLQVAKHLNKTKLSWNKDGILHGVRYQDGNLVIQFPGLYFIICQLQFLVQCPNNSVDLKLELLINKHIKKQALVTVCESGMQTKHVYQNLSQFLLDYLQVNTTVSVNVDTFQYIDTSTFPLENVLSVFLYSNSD

[2] = target: T2, human CD30L expressed on cells (B16-huCD30L; HEK293 cells over-expressing TNFSF8) (human, UniProt P32971 1-234); assay: cell-based or functional assay
T2 sequence: T1 sequence with T19A, T20M, E32G, F41L, I75V, R78K, V204I, V227I

[3] = target: T3, human CD30L expressed on cells (human, UniProt P32971 1-234); assay: flow cytometry, labelled antibody on PMA/ionomycin-stimulated primary lymphocytes, Patient 2 (UC, #03-041)
T3 construct: whole, on cells; The assay field of each row tells which cells carried it; also called huCD30L; B16-huCD30L cells
T3 sequence (looked up): T1 sequence with T19A, T20M, E32G, F41L, I75V, R78K, V204I, V227I
Excerpt: (§1) Peripheral blood mononuclear cells (PBMCs) were isolated from freshly collected whole blood from Ulcerative Colitis (UC) and Crohn's Disease (CD) patients, by conventional density gradient centrifugation. […] After washing to remove unbound antibodies, the cells were fixed in a paraformaldehyde solution and analyzed by flow cytometry to quantify cell surface antibody binding.

[4] = target: T3, human CD30L expressed on cells; assay: flow cytometry, labelled antibody on PMA/ionomycin-stimulated primary lymphocytes, Patient 1 (CD, #04-021)
Excerpt: as §1

[5] = target: T3, human CD30L expressed on cells; assay: flow cytometry, labelled antibody on PMA/ionomycin-stimulated primary lymphocytes, Patient 3 (UC, #02-180)
Excerpt: as §1

[6] = target: T3, human CD30L expressed on cells; assay: flow cytometry, labelled antibody on PMA/ionomycin-stimulated primary lymphocytes, Patient 4 (CD, #01-051)
Excerpt: as §1

[7] = target: T4, recombinant human CD30L protein (human, UniProt P32971 63-234, limits assumed); assay: KinExA, Fab in solution; reference: Fab of Ref1
T4 construct: Used for ELISA, BLI, Carterra, KinExA; also called rhCD30L; purified human CD30L
T4 sequence (looked up): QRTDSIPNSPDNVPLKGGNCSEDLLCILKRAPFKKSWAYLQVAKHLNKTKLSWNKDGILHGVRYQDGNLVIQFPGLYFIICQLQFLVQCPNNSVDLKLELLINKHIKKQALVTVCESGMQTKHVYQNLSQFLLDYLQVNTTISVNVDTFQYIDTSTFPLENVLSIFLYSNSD
Excerpt: A KD analysis requires immobilization of one interaction partner to a solid phase which is then used as a probe to capture the other interaction partner, the constant binding partner (Fab). […] The solutions are then briefly exposed to the solid phase and a portion of free Fab is captured. The captured Fab is then labeled with a fluorescent secondary molecule. The short contact time with the solid phase is less than the time needed for dissociation of the pre-formed complex in solution, thus competition between the solution and the solid phase titrated binding partner is kinetically excluded.

[8] = target: T1, cynomolgus CD30L expressed on HEK293 …; assay: flow cytometry, blocking of recombinant CD30-Fc binding to CD30L-expressing cells; reference Ref1
[9] = target: T2, human CD30L expressed on cells …; assay: as above
[10] = target: T5, mouse CD30L (mouse, UniProt P32972 68-239, limits assumed); assay: screening of a rat campaign with mouse CD30L antigen
T5 construct: also called rmCD30L
T5 sequence (looked up): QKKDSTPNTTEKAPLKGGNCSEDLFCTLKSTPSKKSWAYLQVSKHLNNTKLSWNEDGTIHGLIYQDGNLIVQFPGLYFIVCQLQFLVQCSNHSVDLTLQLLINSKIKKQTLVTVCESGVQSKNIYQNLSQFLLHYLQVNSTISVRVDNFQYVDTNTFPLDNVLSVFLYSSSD

| Binder | EC50 [3] [nM] | EC50 [4] [nM] | EC50 [5] [nM] | EC50 [6] [nM] | other results |
| --- | --- | --- | --- | --- | --- |
| B1 |  |  |  |  | fold better IC50 than Ref1, IL-8 release dual cell assay [1]: 2.6 fold; fold better IC50 than Ref1, IL-8 release dual cell assay [2]: 2 fold |
| B2 | 1.55 | 2.4 | 1.71 | 1.72 |  |
| B3 |  |  |  |  | fold KD against the reference 1 anti-CD30L [7]: 4.2 fold |
| B4 |  |  |  |  | fold better IC50 than Ref1 [8]: 2.13 fold; fold better IC50 than Ref1 [9]: 2.74 fold |
| B5 | 5.43 | 7.45 | 5.57 | 4.53 |  |
| B6 |  |  |  |  | binding result [10]: binds |
